In patent US20260209316A1 (US Dept. of Health and Human Services, published 2026):
Positions count from the first letter of the chain named.

Assays:
[1] = biological target: T1, EBOV GP on pseudotyped lentiviral vector (Ebola (Zaire) virus (EBOV), UniProt Q05320 33-676); assay: cell-based or functional assay
T1 sequence: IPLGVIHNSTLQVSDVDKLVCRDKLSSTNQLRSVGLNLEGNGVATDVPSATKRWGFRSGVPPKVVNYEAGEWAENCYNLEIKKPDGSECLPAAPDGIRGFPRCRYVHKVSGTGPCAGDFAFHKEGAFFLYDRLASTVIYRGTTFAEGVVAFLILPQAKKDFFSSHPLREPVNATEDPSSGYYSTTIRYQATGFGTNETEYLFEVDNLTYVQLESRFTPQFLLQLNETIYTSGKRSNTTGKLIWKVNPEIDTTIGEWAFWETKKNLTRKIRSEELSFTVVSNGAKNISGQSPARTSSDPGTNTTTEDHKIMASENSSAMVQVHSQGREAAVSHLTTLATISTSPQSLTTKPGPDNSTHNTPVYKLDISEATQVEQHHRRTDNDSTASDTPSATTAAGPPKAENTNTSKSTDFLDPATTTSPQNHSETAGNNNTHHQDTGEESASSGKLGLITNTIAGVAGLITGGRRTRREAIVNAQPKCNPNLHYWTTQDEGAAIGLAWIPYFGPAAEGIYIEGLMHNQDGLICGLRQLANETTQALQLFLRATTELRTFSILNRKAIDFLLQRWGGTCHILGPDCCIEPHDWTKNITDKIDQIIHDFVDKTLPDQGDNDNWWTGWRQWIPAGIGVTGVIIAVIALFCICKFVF

[2] = biological target: T2, SUDV GP on pseudotyped lentiviral vector (Sudan virus (SUDV), UniProt Q7T9D9 33-676); assay: cell-based or functional assay
T2 sequence: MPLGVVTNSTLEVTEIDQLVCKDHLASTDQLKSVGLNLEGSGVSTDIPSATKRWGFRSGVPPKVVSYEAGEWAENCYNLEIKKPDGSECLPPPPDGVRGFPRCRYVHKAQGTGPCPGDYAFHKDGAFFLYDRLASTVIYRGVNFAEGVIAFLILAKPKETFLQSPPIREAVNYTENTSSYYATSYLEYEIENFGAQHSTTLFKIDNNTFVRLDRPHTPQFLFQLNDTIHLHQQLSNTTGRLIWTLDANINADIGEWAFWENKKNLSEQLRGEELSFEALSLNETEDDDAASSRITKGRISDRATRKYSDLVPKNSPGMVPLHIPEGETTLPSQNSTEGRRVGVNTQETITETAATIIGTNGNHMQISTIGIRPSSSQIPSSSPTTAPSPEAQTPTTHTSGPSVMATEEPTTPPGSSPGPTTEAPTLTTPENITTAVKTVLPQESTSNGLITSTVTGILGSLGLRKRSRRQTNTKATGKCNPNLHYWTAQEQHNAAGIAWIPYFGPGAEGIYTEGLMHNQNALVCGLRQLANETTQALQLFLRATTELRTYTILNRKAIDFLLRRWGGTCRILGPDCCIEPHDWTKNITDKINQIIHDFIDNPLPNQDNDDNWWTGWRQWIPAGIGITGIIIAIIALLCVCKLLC

[3] = biological target: T3, full-length Zaire GP (GPFL) (Ebola (Zaire) virus (EBOV), UniProt Q05320 33-632); assay: ELISA on coated GP
T3 construct: also called Zaire GPFL; GP(Z)FL
T3 sequence: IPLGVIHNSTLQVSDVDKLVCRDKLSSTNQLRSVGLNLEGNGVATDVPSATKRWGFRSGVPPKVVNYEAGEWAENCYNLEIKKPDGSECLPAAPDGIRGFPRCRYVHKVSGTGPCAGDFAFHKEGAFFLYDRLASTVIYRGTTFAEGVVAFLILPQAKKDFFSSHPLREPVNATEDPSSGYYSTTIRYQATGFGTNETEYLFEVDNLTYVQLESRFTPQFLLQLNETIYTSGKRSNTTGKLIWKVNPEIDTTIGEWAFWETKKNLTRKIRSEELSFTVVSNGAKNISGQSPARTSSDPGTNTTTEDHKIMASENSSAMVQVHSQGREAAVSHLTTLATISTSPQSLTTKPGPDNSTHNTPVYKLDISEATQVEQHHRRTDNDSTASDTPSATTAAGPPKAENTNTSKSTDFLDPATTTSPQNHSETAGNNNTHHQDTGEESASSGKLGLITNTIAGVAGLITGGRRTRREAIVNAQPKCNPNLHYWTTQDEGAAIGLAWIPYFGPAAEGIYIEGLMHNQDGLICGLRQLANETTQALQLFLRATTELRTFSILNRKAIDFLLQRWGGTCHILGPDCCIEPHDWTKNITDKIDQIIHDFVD

[4] = biological target: T4, full-length Sudan GP (GPFL) (Sudan virus (SUDV), UniProt Q7T9D9 33-650); assay: ELISA on coated GP
T4 construct: also called Sudan GPFL; GP(S)FL
T4 sequence: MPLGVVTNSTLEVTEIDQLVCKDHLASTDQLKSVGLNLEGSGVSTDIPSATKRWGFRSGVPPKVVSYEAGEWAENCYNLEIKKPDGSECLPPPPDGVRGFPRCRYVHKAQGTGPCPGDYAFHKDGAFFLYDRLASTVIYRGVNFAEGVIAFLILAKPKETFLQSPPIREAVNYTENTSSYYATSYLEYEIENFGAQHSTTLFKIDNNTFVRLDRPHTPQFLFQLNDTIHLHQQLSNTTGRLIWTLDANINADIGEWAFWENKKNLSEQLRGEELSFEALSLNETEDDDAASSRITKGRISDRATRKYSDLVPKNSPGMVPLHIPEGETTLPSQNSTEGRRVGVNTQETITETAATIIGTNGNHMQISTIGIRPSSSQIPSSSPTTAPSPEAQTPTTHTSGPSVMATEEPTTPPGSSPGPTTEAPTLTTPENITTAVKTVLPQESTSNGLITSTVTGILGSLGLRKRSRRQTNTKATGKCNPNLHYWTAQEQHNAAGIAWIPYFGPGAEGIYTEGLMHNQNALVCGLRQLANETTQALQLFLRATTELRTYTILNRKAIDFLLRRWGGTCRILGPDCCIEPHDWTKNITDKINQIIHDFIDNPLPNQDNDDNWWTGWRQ

[5] = biological target: T4, full-length Sudan GP (GPFL); assay: BLI, Fab, pH 7.4
[6] = biological target: T4, full-length Sudan GP (GPFL); assay: BLI, Fab, pH 5.3
[7] = biological target: T3, full-length Zaire GP (GPFL); assay: BLI, Fab, pH 7.4
[8] = biological target: T4, full-length Sudan GP (GPFL); assay: BLI, Fab, pH 7.4; remark: listed apart in the source
[9] = biological target: T4, full-length Sudan GP (GPFL); assay: BLI, Fab, pH 5.3; remark: listed apart in the source

B1: antibody 310L (antibody, V domains shown)
VH: EMQLVESGGGLVQPGGSLRLSCAASGFTFDAYAMHWVRQRPGKGLEWISGIIWSGRTTYYADSVKGRFTFSRDNSKNSLYLEMNSLKPEDTALYYCAKDSWNYGVYNSLDVWGRGILVTVSS
VL: QSVLTQPPSVSGAPGQRVTISCTGSSSNVGPHYVSWYQHLPGTTPKLLIFQDNKRPSGVSDRFSGSKSASSASLTITGLQTEDEADYYCLSYDSSLNVYIFGSGTRLTVL
In the case of B1, the “IC50, microneutralization of GP-pseudotyped lentiviral vector on HEK293 cells” value (“IC50, microneutralization” below) [1] is reported as greater than 10 µg/mL, the “IC50, microneutralization” value [2] is reported as greater than 10 µg/mL and the EC50 [3] is reported as 0.01 µg/mL. It also gave an EC50 [4] of 0.04 µg/mL.

B2: antibody 232L (antibody, V domains shown)
VH: KSQLVESGGGLVQPGGSLRLSCAASGFTFDAYAMHWVRQAPGEGLEWVTAISWSGSSTYYADSVKGRFTFSRDNAKNSLYLEMNSLRADDTAFYYCVKGGVYNWFDVWGPGVLVTVSS
VL: QSVLTQPPSVSGAPGQRVTISCTGSRSNIGGYYVSWYQQFPGTTPKLLIYQDNKRPSGVSDRFSGSKSGTSASLTITGLQTEDEADYYCLSYDSSLNGWVFGGGTRLTVL
For B2, the “IC50, microneutralization” value [1] was greater than 10 µg/mL, the “IC50, microneutralization” value [2] was greater than 10 µg/mL and the EC50 [3] was 0.08 µg/mL. For the same binder, the EC50 [4] was 0.09 µg/mL.

B3: antibody 231L (antibody, V domains shown)
VH: EVQLVESGGGLVQPGGSLRLSCAASAFTFDDYAMHWVRQAPGKGLEWVSGITWSGLSTYYADSVKGRFTISRDNAKNSLYLQMNSLRVEDTALYYCAKSGNNSPFSGLDSWGQGAVVTVSS
VL: QSVLTQPPSVSGAPGQRVTVSCTGSSSNIGAGSYVQWYQQLPGTAPKLLIYENNKRPSGVSDRFSGSKSGTSASLTITGLQSEDEADYYCQSYDSSLNAYIFGAGTRLTVL
For B3, the “IC50, microneutralization” value [1] was greater than 10 µg/mL, the “IC50, microneutralization” value [2] was greater than 10 µg/mL and the EC50 [3] was 0.002 µg/mL. It also gave an EC50 [4] of 0.4 µg/mL.

B4: Fab generated from 291S (Fab, V domains shown)
VH: QVQLQESGPGLVKPSQTLSLTCTVSGGSFSSGFYWSWIRQRPGKGLEWVGYTYYSGSTYYNPSLQSRVTISVDTSKNQFSLNLSSVTAADTAVYHCARADYGGLFDYWGQGILVTVSS
VL: QSVLTQPSSLSASPGASASLTCTLRSGINVGTYRIFWYQQKPGSPPQFLLRYNSDSDKQQGSGVPSRFSGSKDASANAGILLISGLQSEDEADYYCMIWHTSAWVFGGGTKLTVL
B4 was tested, and the Kd [5] was 2.97 nM, the koff [5] was 0.000131 s⁻¹ and the kon [5] was 44200 M⁻¹ s⁻¹. The Kd [6] was 4.27 nM, the koff [6] was 0.00011 s⁻¹ and the kon [6] was 25700 M⁻¹ s⁻¹.

B5: Fab generated from 545S (Fab, V domains shown)
VH: QVQLQESGPGLVKPSQTLSLTCTVSGGSISRAGSYWSWIRQHPGKGLEWIGYISYSGSTYYNPSLESRVTMSLDTSKSQFSLKLSSVTAADTAVYYCAREDRSGFYGLDVWGQGTTVTVSS
VL: B4 VL with S17T, G31D, F36Y, F48Y, N53K, Q59H, E89A, T101S, S102G, L115Q
notes: also called 545S Fab
Work on B5 yielded a Kd [5] of 1.26 nM, a koff [5] of 0.000125 s⁻¹ and a kon [5] of 99200 M⁻¹ s⁻¹. For the same binder, the Kd [6] was 1.97 nM, the koff [6] was 0.000147 s⁻¹ and the kon [6] was 74300 M⁻¹ s⁻¹.

B6: antibody 191L (antibody, V domains shown)
VH: EVQLVESGGGLVQPGGSLRLSCAASGFTFSSYGIHWVRQAPGKGLEWVAIISYDGNKKFHADSVKDRFTISRDNSKNMLYLQMNNLKLEDTAVYYCARAYDSGYFAGSVFYYWGQGVLVTVSS
VL: EVVFTQPHSVSGSPGQTVTISCTRSSGSIDSEYVQWYQQRPGNAPTTVIYKDNQRPSGVPDRFSGSIDSSSNSASLAISGLKSEDEADYYCQSADGNYHPVFGEGTRLTVL
With B6 the “IC50, microneutralization” value [1] was greater than 10 µg/mL, the “IC50, microneutralization” value [2] was greater than 10 µg/mL and the EC50 [3] was 0.01 µg/mL. The EC50 [4] was 0.02 µg/mL.

B7: Fab generated from 316L (Fab, V domains shown)
VH: EERLVESGGGLVQPGGSLRLSCAASGFTFGDYAMHWVRQVPGKSLEWLSGISWSGYTTYSADSVKGRFTISRDNAKNSLYLQMNRLRPEDTGLYYCVTLIGAIGIKDSLDVWGRGVLVTVSS
VL: QSVLTQPPSVSGAPGQRVTVSCSGSSSNIGAGNYVQWYQQLPGTAPKVLIYQTEKRPSGTSDRFSGSKSDTSASLTINGLQSEDEADYYCQVYDSNLNGWVFGGGTRLTVL
notes: also called 316L Fab
Binder B7 has a Kd [7] of 38.1 nM, a koff [7] of 0.00263 s⁻¹ and a kon [7] of 69000 M⁻¹ s⁻¹. It also gave a Kd [8] of 1.16 nM, a koff [8] of 0.000157 s⁻¹ and a kon [8] of 135000 M⁻¹ s⁻¹. The Kd [9] was 1.26 nM, the koff [9] was 0.000139 s⁻¹ and the kon [9] was 110000 M⁻¹ s⁻¹.

B8: Fab generated from 380L (Fab, V domains shown)
VH: EVQLVESGGGLVQPGGSLTLSCAASGFTFGDYVMHWVRQVPGRGLEWLSAVSWSGYTTYSADSVKGRFTISRDNAKNSLYLQMSRLGTADTGLYYCVTLIGAIGIRDSFDAWGRGVLVTVSS
VL: B7 VL with V10M, S23T, E54D, T60I, D70G, N78S, N96S
notes: also called 380L Fab
Binder B8 has a Kd [7] of 19.8 nM, a koff [7] of 0.00148 s⁻¹ and a kon [7] of 63000 M⁻¹ s⁻¹. For the same binder, the Kd [8] was 2.85 nM, the koff [8] was 0.00029 s⁻¹ and the kon [8] was 101000 M⁻¹ s⁻¹. For the same binder, the Kd [9] was 3.87 nM, the koff [9] was 0.000326 s⁻¹ and the kon [9] was 84200 M⁻¹ s⁻¹.

B9: antibody 206L (antibody, V domains shown)
VH: EVQLVESGGGVVQPGGSLRLSCAASGFTFDDYAMHWVRQAPGKGLEWVSGISWSGGNTYYADSVKGRFTVSRENAKNSLYLQMNRLRAEDTAFYNCARTSQGGAVVFSAPNYWGQGVLVTVSS
VL: QSVLTQAPSVSGAPGQRVTISCTGSSSNIGGYYVQWYQQLPGRAPKLLIYENNKRPSGVSDRFSGSRSASSASLTITGLQSEDEADYYCQSYDSRLNGYIFGGGTRLTVL
B9 was tested, and the “IC50, microneutralization” value [1] was greater than 10 µg/mL, the “IC50, microneutralization” value [2] was greater than 10 µg/mL and the EC50 [3] was 0.001 µg/mL. For the same binder, the EC50 [4] was 2.58 µg/mL.
